{"source": "the nanobody polyreactivity screen of Harvey et al. (2022)", "data": [{"test": "yeast display, Sf9 membrane polyspecificity reagent, FACS + sequencing; frameworks hold sequencing errors", "procedure,_shortened": "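Nanobodies came from a synthetic yeast display library in Saccharomyces cerevisiae BJ5465, induced with galactose for 36–48 hours and stained for 1 hour at 4 °C with 10% biotinylated, detergent-solubilized Sf9 membrane reagent. Cells were enriched on streptavidin microbeads and then FACS-sorted, with low and high (top ~1%) gates set on anti-HA fluorescence for expression and streptavidin fluorescence for reagent binding. Each polyreactivity label reflects the gate a clone came from. Genes were amplified by colony PCR, sequenced by MiSeq 2 × 250 and filtered by CDR length.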", "values": [{"sequence": "QVQLQESGGGLVQADGSLRLSCAASGSIFGYYNMGWYRQAPGKHRELVATINLCRITNYADSVKGRFTISRDNATNTVYVEMHSLNPDDTAVFYCAADEYAQRDLGYWGQGTQVTVSS", "polyreactivity (PSR sort gate)": "low polyreactivity"}, {"sequence": "QVQLQESGGGLVQADGSLRLSCAASGTIFTQSYMGWYRQAPGKEREFVAGISNGTNTNYGDSVKGRFTISRDNAKNTVYLQMNSLKLEDTAVYYCAVKGFYVDVLAYWGQGTHVTVSS", "polyreactivity (PSR sort gate)": "high polyreactivity"}, {"sequence": "QVQLQESGGGLVQAGGDLRLSCAASGNIFRDYIMGWYRQAPGKEREFVAGIDRGANTNYADSVKGRFTISRDNAKNTVYLQMNSLKQEDTAVYYCAVHTAIVPDFIYWGQGTQVTVSS", "polyreactivity (PSR sort gate)": "low polyreactivity"}, {"sequence": "QVQLQESGGGLVQAGGSLCLSCAASGTIIFDGDMGWYRQAPGKEREFVAAINPGGSAYYADSVKGRLPLAAITHTVYLQMNCLKPEDTAVYYCAAKLFDVYGYYYWGQGTHVTVSS", "polyreactivity (PSR sort gate)": "low polyreactivity"}, {"sequence": "QVQLQESGGGLVQAGGSLLSCAASGPISYYREMGWYRQAPGKERELVAGFGVGTITYYADSVKGRFTISRDNAKNTVYLQMNSLKPEVTAVYYCAAHIDGNDSHAYWGQGTQVTVIS", "polyreactivity (PSR sort gate)": "low polyreactivity"}, {"sequence": "QVQLQESGGGLVQAGGSLRLGCAASGNISDAGYMGWYRQAPGKEREFVAAIAAGSNTNYADSVKGRFTISRDNAKNTVYMQLNSLKSEDTGVFYCAVASYDRVQYEYWGQGTQVTVNS", "polyreactivity (PSR sort gate)": "low polyreactivity"}, {"sequence": "QVQLQESGGGLVQAGGSLRLSCAARGNIFLGDTMGWYRQAPGKEREFVAGIARGGNPYYADSVKGRFTISRNNAKNTVYLQKNSLKPVDTAVHYCAVQRSHASDYNYWGQGTQVTVSS", "polyreactivity (PSR sort gate)": "low polyreactivity"}, {"sequence": "QVQLQESGGGLVQAGGSLRLSCAASGNIFGTKSMGWYRQAPGKGREFVAAINDGGSTNYADSVKGRFTIGRDNAKNTVYLQMNSLKPEDTAVYYCAAQWVRSDYHTYWGQGTQVTVSS", "polyreactivity (PSR sort gate)": "high polyreactivity"}, {"sequence": "QVQLQESGGGLVQAGGSLRLSCAASGNISVTGVMGWYRQAPGKERELVASIGIGGTTYYADSVKGRFSISRDNAKNTVYLQMNSLKPEDTAVYYCGARYVYSAYSYWGQGSQVTVSS", "polyreactivity (PSR sort gate)": "low polyreactivity"}, {"sequence": "QVQLQESGGGLVQAGGSLRLSCAASGNIVDADIMGWSRQAPGKERELVASITDGGSTNYADSVKGRFTISRDYAKNTVYLQMNSLKPEDTAVYYCAAIAYPDIPTYIDYDSEYFYWGQGTQVTVSS", "polyreactivity (PSR sort gate)": "low polyreactivity"}, {"sequence": "QVQLQESGGGLVQAGGSLRLSCAASGSIFADVQMGWYRQAPGKELELVASINFRGTTTYYADSVKGRFTISRDNAKNTVYLQMSSLKPEDNAVYYCAVGRSEGGDFAYWGQGTHVTVSS", "polyreactivity (PSR sort gate)": "low polyreactivity"}, {"sequence": "QVQLQESGGGLVQAGGSLRLSCAASGSIFDSTFMGWYRQAPGKERELVAGISYGTITYYADSVKGRFTISRDNAKHRVSAEEQPESGRYRGVLLRGYPAGQLFLACWGQGTQVTESS", "polyreactivity (PSR sort gate)": "high polyreactivity"}, {"sequence": "QVQLQESGGGLVQAGGSLRLSCAASGSIFDTPTMGWYRQAPGKERELVASIAYDDNTYYADSVKGRFTISRYNAKHTVYLQMNSLKPGDTAVYYCAVTDRIYYYFVYWGQGTRVTVSS", "polyreactivity (PSR sort gate)": "high polyreactivity"}, {"sequence": "QVQLQESGGGLVQAGGSLRLSCAASGSIFKVVDMGLYRQAPAKEREFVATIGEGGNTYYADSVKGRFTISRDNAKNTVYLQMHSLKPEDTAVYFYAVVLGTSYRYTYWGQGTQVTVSS", "polyreactivity (PSR sort gate)": "low polyreactivity"}, {"sequence": "QVQLQESGGGLVQAGGSLRLSCAASGSIFLLHIMCWYRQAPGKERESVAAISYGTSTYYADSVNGRFTICRDNAKNTVYLQMNSPKPDDTAVYYCAALFLVSKHHHFWGEGTQVTVSS", "polyreactivity (PSR sort gate)": "low polyreactivity"}, {"sequence": "QVQLQESGGGLVQAGGSLRLSCAASGSIFVSVTMGWYRQAPGKERELVASIGRGSTTNHADSVKGRFTISRDNAKNIVYLLMNSLKPEDTAVYSCAALESYGKYHGYWGQGTQVTVSS", "polyreactivity (PSR sort gate)": "low polyreactivity"}, {"sequence": "QVQLQESGGGLVQAGGSLRLSCAASGSIFVSVTMGWYRQAPGKERELVASIGRGSTTNHADSVKGRFTISRDNAKNIVYLLMNSLKPEDTAVYYCASLESYGKYHGYWGQGTQVTVSS", "polyreactivity (PSR sort gate)": "low polyreactivity"}, {"sequence": "QVQLQESGGGLVQAGGSLRLSCAASGSISAVGAMGWYRQAPGKEREFAASVNWGTNTNYADSVKGRFTISRDNAKTTLYLQMNSLKPEDTAVYYCAADVQITSAGGDYDYWGQGTQVTVSS", "polyreactivity (PSR sort gate)": "low polyreactivity"}, {"sequence": "QVQLQESGGGLVQAGGSLRLSCAASGSISGPQVMVWYRQAPGKEREFVAAINVGANTYYADNVKGRFTISRDNAKNTVYLQMNSLKPEDTAVYYCAAVYYGDIGHESWGQGTQVTVSC", "polyreactivity (PSR sort gate)": "low polyreactivity"}, {"sequence": "QVQLQESGGGLVQAGGSLRLSCAASGSISLGRGMGWYRQAPGKREFVVTIAASVNWGTNTNYADSVKGRFTISRDNAKNTLYLQMNSLKPEDTAVYYCAVLPEWETRHDYWGHGTQVTVSS", "polyreactivity (PSR sort gate)": "low polyreactivity"}, {"sequence": "QVQLQESGGGLVQAGGSLRLSCAASGSISRLDYRGWYRQASGKERELVAAIDNGSTTYYADSVKGRLTISRDNAKYTVYLQMNSLKPEDTAVYFCAAVRGRGGTHAYWGQGTQVTVSG", "polyreactivity (PSR sort gate)": "low polyreactivity"}, {"sequence": "QVQLQESGGGLVQAGGSLRLSCAASGSISYPRTMGWYREAPGKEREFVAGIGVGGTTYYADSVKGRFTISRDNAKNTVYLQMNSLKPEDAAVYYCAVAAYYDKYYVYWGQGTQVTVSC", "polyreactivity (PSR sort gate)": "low polyreactivity"}, {"sequence": "QVQLQESGGGLVQAGGSLRLSCAASGSLFLFYTMGWYRQAPVIEREFVAGITLGTTTYNADSVKGRFTISRDNVKNTVFLQMNSLKPEDTAVYYCAVAVGHYTEFWYWGQGTQVTMSS", "polyreactivity (PSR sort gate)": "high polyreactivity"}, {"sequence": "QVQLQESGGGLVQAGGSLRLSCAASGTIFRFRYMGWHRQAPGKERELVAGINGGTTTYYADSVIGRFTISRDNAKNTVYLHMNCLKPDDTAVYNCAAGASRLTYYDYWGQGTQVTVSS", "polyreactivity (PSR sort gate)": "low polyreactivity"}, {"sequence": "QVQLQESGGGLVQAGGSLRLSCAASGTIFRFRYMGWHRQAPGTERELVAGINGGTTTYYADSVIGRFTISRDNAKNTVYLQMNSLKPDDTAVYNCAAGASRLTYYDYWGQGTQVTVSS", "polyreactivity (PSR sort gate)": "low polyreactivity"}, {"sequence": "QVQLQESGGGLVQAGGSLRLSCAASGTIFTARFMGWYRQAPGKERELVATITDGGNTNHADSVKGRFTISRDNAKNTVYLQMNSLKPEDAAVYFCAAGEVDNDTLLYWGQGSQVTVSS", "polyreactivity (PSR sort gate)": "low polyreactivity"}, {"sequence": "QVQLQESGGGLVQAGGSLRLSCAASGTIFWLWAMGWYCKAPGKERELVASISSGGTTYHADSVKGRFTISRDNAKNTVYLQMNSLKPEDTAVYYSAAFYVATAKLGYWGQGSQVTVSS", "polyreactivity (PSR sort gate)": "low polyreactivity"}, {"sequence": "QVQLQESGGGLVQAGGSLRLSCAASGTIFWLWAMGWYCPAPGKERELVASISSGGTTYHADSVKGRFTISRDNAKNTVYLQMNSLKPEDTAVYYSAAFYVATAKLGYWGQGSQVTVSS", "polyreactivity (PSR sort gate)": "low polyreactivity"}, {"sequence": "QVQLQESGGGLVQAGGSLRLSCAASGTISDRAGMGWYRQAPAKNAIVATIDRGTNTNYADSVKGRFTISRDNAKNPVYLKMNSLKPEDTAVYNWAADGRYYIYLDYWGQGTQVTVSS", "polyreactivity (PSR sort gate)": "low polyreactivity"}, {"sequence": "QVQLQESGGGLVQAGGSLRLSCAASGTISDSGLKGWYRQAPGIERELVAGISSGGITNYADSVKGRFTISRDNAQNTVYLQMNSLKPVDTAVYWGQGTQLTVSS", "polyreactivity (PSR sort gate)": "low polyreactivity"}, {"sequence": "QVQLQESGGGLVQAGGSLRLSCAASGTISLGDNMGWYRQAPGKEREFVATISVGGITYYVDSVKGRFTISRDIAKNTVYLQMNSLKPEDTAVYYCAALDIYYFRYYYWGQGTQVTVSS", "polyreactivity (PSR sort gate)": "low polyreactivity"}, {"sequence": "QVQLQESGGGLVQAGGSLRLSCAASGTISPLPAMGWYRQAPGKEREFVAGIDTGAITNYADSVKGRFTISRDNAKNTVYLQMNSLIAEDTAVYYCAVFPAAYDYYERYYTYWGQGTQVTVSS", "polyreactivity (PSR sort gate)": "low polyreactivity"}, {"sequence": "QVQLQESGGGLVQAGGSLRLSCAASGTISQEDRMGWYRQAPGKEREFVAAIGLGSNTNYADSLKGRFTISRDNAKNTVYLQMNSLKPEDTAVYYCAVSVWQYSDHVYRGQGTQVTVSS", "polyreactivity (PSR sort gate)": "low polyreactivity"}, {"sequence": "QVQLQESGGGLVQAGGSLRLSCAASGTISQEDWMGWYRQAPGKEREFVAAIGLGSNTNYADSLKGRFTMSRDNAKNTVYLQMNSLKPEDTAVYYCAVSVWQYSDHVYRGQGTQVTVSS", "polyreactivity (PSR sort gate)": "low polyreactivity"}, {"sequence": "QVQLQESGGGLVQAGGSLRLSCAASGTISTDSYMGWYRQAPGKERKFVATIGYGGITYYADSVKGRSTISRDSAKNTVYLQMNSLKPEDTAVYYCAVNSYYPDHYWYWGRGTQVTVSS", "polyreactivity (PSR sort gate)": "high polyreactivity"}, {"sequence": "QVQLQESGGGLVQAGGSLRLSCAASGTISYAPHMGWYRHAPGKERELDAGITIGGTTYYADSVKGRFTISRDYAKNTVDLQMNRLSPGDTAVYYCAAHSEQYTPFYYWGQGTQVTVSS", "polyreactivity (PSR sort gate)": "low polyreactivity"}, {"sequence": "QVQLQESGGGLVQAGGSLRLSCAASGTITVLYKMAWFRQEPGKEREFVASINYGTSTYYADSVKGRFTVSRDSAKNTVYLQMNSLKPEDTAVYYCAAAYRWQDVYRYWGQGTQVTVSS", "polyreactivity (PSR sort gate)": "low polyreactivity"}, {"sequence": "QVQLQESGGGLVQAGGSLRLSCAASGYIILQYAMGWYRPAPGKERELVASIARGTSTYYADSVKGRFTISRDNAKNTVYLQMNSLKPEDTAVYYCAVIYSWGLWHDYWGQGTQVTVSS", "polyreactivity (PSR sort gate)": "high polyreactivity"}, {"sequence": "QVQLQESGGGLVQAGGSLRLSCAASGYISAGRQMGWYRQAPGKEREFVATINGGATTNYADSVKGRFTISRDNAKNSVFLQMNSLKPEDTAVYYCAAVIWYVQDYSYWGQGAQVTVSS", "polyreactivity (PSR sort gate)": "high polyreactivity"}, {"sequence": "QVQLQESGGGLVQAGGSLRLSCAASGYISHADEMGWYRQAPGKEHELVASISNGGSTNYADSVKARCTISRDNAKTTVYLQMNSLKSEATAVYFCAAWTGQVDIHYYWGQGTQVTVSS", "polyreactivity (PSR sort gate)": "low polyreactivity"}, {"sequence": "QVQLQESGGGLVQAGGSLRLSCAASGYISHADEMGWYRQAPGKEHELVASISNGGSTNYADSVKGRFTISRDNAKNTVYLQMNSLKSELTAVYYCAAWTGQVDIHYYWGQGTQVTVSS", "polyreactivity (PSR sort gate)": "low polyreactivity"}, {"sequence": "QVQLQESGGGLVQAGGSLRLSCAASGYISYFVGMGWYRQAPGKEREFVASIADGSNTYYADSVKGRFTISRDNAKNTVYLQRNSLKQEDTAVYYCAVEDSWTYRFDYWGQGTQVTVSS", "polyreactivity (PSR sort gate)": "high polyreactivity"}, {"sequence": "QVQLQESGGGLVQAGGSLRLSCEASGSISHYIFMGWYRQAQGKEREFVAGIGYGGTTNYADSVKGRFTISRDNAKNTVYLQMNSLKPEDTAMYYCAAREATEFYLYYWGQGTQVTVSS", "polyreactivity (PSR sort gate)": "low polyreactivity"}, {"sequence": "QVQLQESGGGLVQAGGSLRLSCEASGYISLAQTIGWYRQAPGKEREFVASIALGSSTYYTDSVKGSFTISRDKEKTTVYLQMNSLKPAETGVYYCAARVGASYAHDYWGQGTQVTVSS", "polyreactivity (PSR sort gate)": "low polyreactivity"}]}]}
